Measurements published in the supplement of paper PMC6755084.

B1: F1*; the commonest letter at each place (parent)
chain: GAGACCGCAACTGAAAAGTTGTTATCACTTGTCGTAAGACACTTTGGATGGGTTGAAGTTCTGCACGTAGAAGCAAAAGGC

Variants of: B1
Assay: fraction ligated after 30 min (ligated reads / total reads); higher = more ligase activity
Settings: with F1*sub RNA substrate (template-directed ligation), 42 °C
Experimental: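 Chip-synthesised pool of F1* ligase ribozyme variants (all single and double substitutions, single, double and triple deletions in the catalytic core and GAA bulge, plus designed variants) was transcribed with T7 and reacted as a pool with excess substrate F1*sub for 30 min at 42 C in 50 mM EPPS pH 8.5, 25 mM MgCl2. Ligated and unligated bands were separated by PAGE, barcoded by RT and deep sequenced; fraction ligated = ligated reads / total reads per variant, relative activity = FL / FL of wild type (0.826). Sequences are the DNA template of the ribozyme.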
Work on A24T T35G yielded a fraction ligated of 0.772. A24T T35C was tested, and the fraction ligated was 0.788. T25G T45A gave a fraction ligated of 0.0602. T25G T45G showed a fraction ligated of 0.0229. T25G T45C showed a fraction ligated of 0.0153. T25G T32A was tested, and the fraction ligated was 0.324. Variant T25G T32G has a fraction ligated of 0.293. T25G T32C showed a fraction ligated of 0.364. T25C G47C was tested, and the fraction ligated was 0.0468. T25C G47T showed a fraction ligated of 0.208. T25C G47A showed a fraction ligated of 0.734. T25G T44C was tested, and the fraction ligated was 0.741. T25G T44G gave a fraction ligated of 0.474. With T25G T44A the fraction ligated was 0.737. Work on T25A T29G yielded a fraction ligated of 0.691. T25A T29C showed a fraction ligated of 0.187. Variant T25A T29A has a fraction ligated of 0.582. T25G G55T was tested, and the fraction ligated was 0.132. In the case of T25G G55A, the fraction ligated is reported as 0.442. T25G G55C showed a fraction ligated of 0.0471. A24T T32G was tested, and the fraction ligated was 0.372. Work on A24T T32C yielded a fraction ligated of 0.243. For A24T T32A, the fraction ligated was 0.153. T25C C40A was tested, and the fraction ligated was 0.524. With T25C C40G the fraction ligated was 0.378. In the case of T25C C40T, the fraction ligated is reported as 0.819. Variant T25C A36G has a fraction ligated of 0.816. For T25C A36C, the fraction ligated was 0.771. For T25C A36T, the fraction ligated was 0.793. For C26A C33T, the fraction ligated was 0.829. C26A C33G was tested, and the fraction ligated was 0.792. For C26A C33A, the fraction ligated was 0.721. T25G A57C gave a fraction ligated of 0.556. Variant T25G A57T has a fraction ligated of 0.563. Variant T25G A57G has a fraction ligated of 0.703. Variant A24T T43G has a fraction ligated of 0.708. A24T T43C gave a fraction ligated of 0.621. Work on A24T T43A yielded a fraction ligated of 0.678. With T25C T29C the fraction ligated was 0.781. T25C T29G was tested, and the fraction ligated was 0.783. T25C T29A gave a fraction ligated of 0.753. T25G C28T showed a fraction ligated of 0.675. T25G C28G showed a fraction ligated of 0.541. In the case of T25G C28A, the fraction ligated is reported as 0.348. Variant T25C T44C has a fraction ligated of 0.765. For T25C T44G, the fraction ligated was 0.0249. Work on T25C T44A yielded a fraction ligated of 0.788. In the case of T25C A48C, the fraction ligated is reported as 0.686. T25C A48T was tested, and the fraction ligated was 0.815. T25C A48G was tested, and the fraction ligated was 0.794. For T25A C28T, the fraction ligated was 0.714. For T25A C28A, the fraction ligated was 0.396. For T25A C28G, the fraction ligated was 0.431. For T25A G55C, the fraction ligated was 0.0483. In the case of T25A G55T, the fraction ligated is reported as 0.0485. T25A G55A gave a fraction ligated of 0.263. T25G G46C gave a fraction ligated of 0.135. T25G G46A gave a fraction ligated of 0.266. T25G G46T showed a fraction ligated of 0.134. T25A A36T showed a fraction ligated of 0.752. Work on T25A A36G yielded a fraction ligated of 0.766. Variant T25A A36C has a fraction ligated of 0.684. C26A C28T was tested, and the fraction ligated was 0.584. Work on C26A C28A yielded a fraction ligated of 0.64. C26A C28G was tested, and the fraction ligated was 0.395. T25A G38A showed a fraction ligated of 0.353. With T25A G38T the fraction ligated was 0.375. For T25A G38C, the fraction ligated was 0.0835. In the case of T25C G46T, the fraction ligated is reported as 0.396. Variant T25C G46C has a fraction ligated of 0.474. With T25C G46A the fraction ligated was 0.71. T25C T35G gave a fraction ligated of 0.801. T25C T35A gave a fraction ligated of 0.781. T25C T35C was tested, and the fraction ligated was 0.771. Variant T25G C42T has a fraction ligated of 0.797. With T25G C42A the fraction ligated was 0.737. T25G C42G was tested, and the fraction ligated was 0.737. T25C A27C showed a fraction ligated of 0.744. Work on T25C A27T yielded a fraction ligated of 0.774. For T25C A27G, the fraction ligated was 0.796. Work on C26A A41C yielded a fraction ligated of 0.21. Variant C26A A41G has a fraction ligated of 0.761. C26A A41T showed a fraction ligated of 0.768. For T25C G50C, the fraction ligated was 0.379. T25C G50A showed a fraction ligated of 0.326. For T25C G50T, the fraction ligated was 0.639. T25G G31C gave a fraction ligated of 0.0618. For T25G G31T, the fraction ligated was 0.0799. T25G G31A was tested, and the fraction ligated was 0.0861. T25A T45G showed a fraction ligated of 0.029. For T25A T45A, the fraction ligated was 0.0271. For T25A T45C, the fraction ligated was 0.0183. T25A C26G showed a fraction ligated of 0.0644. With T25A C26A the fraction ligated was 0.0968. Work on T25A C26T yielded a fraction ligated of 0.129. In the case of T25G A27G, the fraction ligated is reported as 0.434. With T25G A27T the fraction ligated was 0.706. T25G A27C gave a fraction ligated of 0.705. In the case of A24T T30G, the fraction ligated is reported as 0.768. A24T T30A gave a fraction ligated of 0.67. A24T T30C was tested, and the fraction ligated was 0.297. A24T T49A gave a fraction ligated of 0.8. A24T T49C gave a fraction ligated of 0.694. In the case of A24T T49G, the fraction ligated is reported as 0.783. In the case of T25C G34T, the fraction ligated is reported as 0.786. With T25C G34A the fraction ligated was 0.799. T25C G34C showed a fraction ligated of 0.795. T25C C42T showed a fraction ligated of 0.804. In the case of T25C C42G, the fraction ligated is reported as 0.769. T25C C42A showed a fraction ligated of 0.776. Variant T25A T35A has a fraction ligated of 0.751. Work on T25A T35G yielded a fraction ligated of 0.764. In the case of T25A T35C, the fraction ligated is reported as 0.761. In the case of C26A A57T, the fraction ligated is reported as 0.738. Work on C26A A57C yielded a fraction ligated of 0.717. Variant C26A A57G has a fraction ligated of 0.804. With T25C A56G the fraction ligated was 0.0517. With T25C A56C the fraction ligated was 0.0931. Variant T25C A56T has a fraction ligated of 0.107. Variant A24T G55A has a fraction ligated of 0.532. With A24T G55C the fraction ligated was 0.107. Variant A24T G55T has a fraction ligated of 0.18. T25G G34T was tested, and the fraction ligated was 0.735. For T25G G34A, the fraction ligated was 0.77. For T25G G34C, the fraction ligated was 0.737. For C26A G31T, the fraction ligated was 0.0438. C26A G31A showed a fraction ligated of 0.261. Variant C26A G31C has a fraction ligated of 0.226. T25G T29A showed a fraction ligated of 0.773. T25G T29C showed a fraction ligated of 0.385. T25G T29G showed a fraction ligated of 0.714. Variant T25A T49G has a fraction ligated of 0.772. Variant T25A T49A has a fraction ligated of 0.721. T25A T49C gave a fraction ligated of 0.612. T25C T43C showed a fraction ligated of 0.731. In the case of T25C T43G, the fraction ligated is reported as 0.8. Work on T25C T43A yielded a fraction ligated of 0.655. In the case of C26A A56G, the fraction ligated is reported as 0.096. For C26A A56C, the fraction ligated was 0.0368. C26A A56T was tested, and the fraction ligated was 0.14. T25A T44A showed a fraction ligated of 0.762. Work on T25A T44G yielded a fraction ligated of 0.117. Work on T25A T44C yielded a fraction ligated of 0.605. In the case of T25C C28T, the fraction ligated is reported as 0.803. In the case of T25C C28G, the fraction ligated is reported as 0.78. T25C C28A gave a fraction ligated of 0.684. In the case of C26A A36T, the fraction ligated is reported as 0.823. Work on C26A A36C yielded a fraction ligated of 0.79. For C26A A36G, the fraction ligated was 0.781. Work on T25G G50T yielded a fraction ligated of 0.436. T25G G50A gave a fraction ligated of 0.103. With T25G G50C the fraction ligated was 0.142. In the case of T25C T45C, the fraction ligated is reported as 0.0655. T25C T45G gave a fraction ligated of 0.0359. In the case of T25C T45A, the fraction ligated is reported as 0.295. T25C G55C showed a fraction ligated of 0.424. Work on T25C G55A yielded a fraction ligated of 0.784. For T25C G55T, the fraction ligated was 0.174. With T25A C33G the fraction ligated was 0.229. T25A C33A was tested, and the fraction ligated was 0.189. For T25A C33T, the fraction ligated was 0.472. For T25G C26A, the fraction ligated was 0.261. T25G C26T gave a fraction ligated of 0.191. In the case of T25G C26G, the fraction ligated is reported as 0.0648. T25A G46T was tested, and the fraction ligated was 0.0811. Work on T25A G46A yielded a fraction ligated of 0.279. T25A G46C gave a fraction ligated of 0.137.
